Reference: patent US20090317397A1 (published 2009)

T1: B7 antigen (B7-1) stably expressed on CHO cells (UniProt P33681 35-288, limits assumed)
T1 construct: whole, on cells; also called B7+CHO cells; B7 positive CHO cells
T1 sequence (looked up): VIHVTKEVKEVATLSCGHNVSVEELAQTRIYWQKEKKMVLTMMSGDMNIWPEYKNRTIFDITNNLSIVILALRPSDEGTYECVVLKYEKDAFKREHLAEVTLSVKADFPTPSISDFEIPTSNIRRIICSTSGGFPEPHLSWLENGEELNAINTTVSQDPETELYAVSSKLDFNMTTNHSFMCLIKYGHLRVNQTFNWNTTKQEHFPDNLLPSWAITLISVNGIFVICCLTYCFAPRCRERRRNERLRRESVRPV


How the values were obtained:
[1] = biological target: CTLA4Ig fusion protein (human) (UniProt P16410); assay: solid phase binding, 4 nM ^125I-B7Ig on immobilized CTLA4Ig
[2] = biological target: CTLA4Ig fusion protein (human) (UniProt P16410); assay: solid phase competition, ^125I-B7Ig (4 nM) on immobilized CTLA4Ig
[3] = biological target: CTLA4Ig fusion protein (human) (UniProt P16410); assay: Scatchard plot of the solid phase competition data, immobilized CTLA4Ig
[4] = biological target: T1, B7 antigen (B7-1) stably expressed on …; assay: cell enzyme immunoassay on fixed B7-1+ CHO cells

| Molecule | binding result [4] | also measured |
| --- | --- | --- |
| B7Ig fusion protein (from UniProt P33681 35-241) (Fc fusion) |  | radioactivity bound to wells treated without competitor [1]: 28300 cpm; IC50 [2]: 175 nM; Kd [3]: 12 nM |
| CTLA4/CD28Ig hybrid fusion protein HS4 (Fc fusion, range 1-96; also called the CD28Ig analog; not shown: human IgG1 hinge (Cys to Ser), CH2, CH3; junction printed as DQE) NKILVKQSPMLVAYDNAVNLSCKYSYNLFSREFRASLHKGLDSAVEVCVVYGNYSQQLQVYSKTGFNCDGKLGNESVTFYLQNLYVNQTDIYFCKIELMYPPPYYLGIGNGTQIYVIDPEPCPD |  | fold less binding than wild type CTLA4Ig [4]: ~5 fold; increase in binding relative to CD28Ig [4]: ~2.5 orders of magnitude |
| CTLA4/CD28Ig hybrid fusion protein HS4-A (Fc fusion, not shown: human IgG1 hinge (Cys to Ser), CH2, CH3; junction printed as DQE) NKILVKQSPMLVAYDNAVNLSCKYSYNLFSREFRASLHKGLDSAVEVCVVYGNYSQQLQVYSKTGFNCDGKLGNESVTFYLQNLYVNQTDIYFCKIELMYPPPYYLGIGNGTQIHVKGKHLCPS |  | % of wild type binding [4]: ~2% |
| CTLA4/CD28Ig hybrid fusion protein HS7 (Fc fusion, range 1-24;range 33-96; not shown: human IgG1 hinge (Cys to Ser), CH2, CH3; junction printed as DQE) NKILVKQSPMLVAYDNAVNLSCKYASPGKATEFRASLHKGLDSAVEVCVVYGNYSQQLQVYSKTGFNCDGKLGNESVTFYLQNLYVNQTDIYFCKIELMYPPPYYLGIGNGTQIYVIDPEPCPD |  | % binding activity relative to CTLA4Ig [4]: ~44% |
| CTLA4/CD28Ig hybrid fusion protein HS10 (Fc fusion, range 1-49;range 58-96; not shown: human IgG1 hinge (Cys to Ser), CH2, CH3; junction printed as DQE) NKILVKQSPMLVAYDNAVNLSCKYSYNLFSREFRASLHKGLDSAVEVCVATYMMGNELQVYSKTGFNCDGKLGNESVTFYLQNLYVNQTDIYFCKIELMYPPPYYLGIGNGTQIYVIDPEPCPD | binds |  |
| CTLA4/CD28Ig hybrid fusion protein HS2 (Fc fusion, range 23-96; not shown: human IgG1 hinge (Cys to Ser), CH2, CH3; junction printed as DQE) AMHVAQPAVVLASSRGIASFVCKYSYNLFSREFRASLHKGLDSAVEVCVVYGNYSQQLQVYSKTGFNCDGKLGNESVTFYLQNLYVNQTDIYFCKIELMYPPPYYLGIGNGTQIYVIDPEPCPDSD | binds |  |
| CTLA4/CD28Ig hybrid fusion protein HS6 (Fc fusion, range 25-32; not shown: human IgG1 hinge (Cys to Ser), CH2, CH3; junction printed as DQE) AMHVAQPAVVLASSRGIASFVCEYSYNLFSREVRVTVLRQADSQVTEVCAATYMMGNELTFLDDSICTGTSSGNQVNLTIQGLRAMDTGLYICKVELMYPPPYYLGIGNGTQIYVIDPEPCPDSD | binds |  |
| CTLA4/CD28Ig hybrid fusion protein HS11 (Fc fusion, range 1-24;range 33-49;range 58-96; not shown: human IgG1 hinge (Cys to Ser), CH2, CH3; junction printed as DQE) NKILVKQSPMLVAYDNAVNLSCKYASPGKATEFRASLHKGLDSAVEVCVATYMMGNELQVYSKTGFNCDGKLGNESVTFYLQNLYVNQTDIYFCKIELMYPPPYYLGIGNGTQIYVIDPEPCPD | binds |  |
| CTLA4/CD28Ig hybrid fusion protein HS9 (Fc fusion, range 1-24;range 33-115; not shown: human IgG1 hinge (Cys to Ser), CH2, CH3; junction printed as DQE) NKILVKQSPMLVAYDNAVNLSCKYASPGKATEFRASLHKGLDSAVEVCVVYGNYSQQLQVYSKTGFNCDGKLGNESVTFYLQNLYVNQTDIYFCKIEVMYPPPYLDNEKSNGTIIYVIDPEPCPD | binds |  |
| CTLA4/CD28Ig hybrid fusion protein HS4-B (Fc fusion, range 1-115; not shown: human IgG1 hinge (Cys to Ser), CH2, CH3; junction printed as DQE) NKILVKQSPMLVAYDNAVNLSCKYSYNLFSREFRASLHKGLDSAVEVCVVYGNYSQQLQVYSKTGFNCDGKLGNESVTFYLQNLYVNQTDIYFCKIEVMYPPPYLDNEKSNGTIIYVIDPEPCPD | binds |  |
| CTLA4/CD28Ig hybrid fusion protein HS5 (Fc fusion, CD28Ig itself runs to about 134; not shown: human IgG1 hinge (Cys to Ser), CH2, CH3; junction printed as DQE) NKILVKQSPMLVAYDNAVNLSCKYASPGKATEFRASLHKGLDSAVEVCVVYGNYSQQLQVYSKTGFNCDGKLGNESVTFYLQNLYVNQTDIYFCKIEVMYPPPYLDNEKSNGTIIHVKGKHLCPS | binds |  |
| CTLA4/CD28Ig hybrid fusion protein HS8 (Fc fusion, not shown: human IgG1 hinge (Cys to Ser), CH2, CH3; junction printed as DQE) NKILVKQSPMLVAYDNAVNLSCKYASPGKATEFRASLHKGLDSAVEVCVVYGNYSQQLQVYSKTGFNCDGKLGNESVTFYLQNLYVNQTDIYFCKIELMYPPPYYLGIGNGTQIHVKGKHLCPS |  | % of wild type binding [4]: ~60% |
| CTLA4/CD28Ig hybrid fusion protein HS12 (Fc fusion, not shown: human IgG1 hinge (Cys to Ser), CH2, CH3; junction printed as DQE) NKILVKQSPMLVAYDNAVNLSCKYSYNLFSREFRASLHKGLDSAVEVCVATYMMGNELQVYSKTGFNCDGKLGNESVTFYLQNLYVNQTDIYFCKIELMYPPPYYLGIGNGTQIHVKGKHLCPS | binds |  |
| CTLA4/CD28Ig hybrid fusion protein HS13 (Fc fusion, not shown: human IgG1 hinge (Cys to Ser), CH2, CH3; junction printed as DQE) NKILVKQSPMLVAYDNAVNLSCKYASPGKATEFRASLHKGLDSAVEVCVATYMMGNELQVYSKTGFNCDGKLGNESVTFYLQNLYVNQTDIYFCKIELMYPPPYYLGIGNGTQIHVKGKHLCPS | binds |  |
